Results reported in patent publication US20240122985A1, “ANTIBODIES, COMBINATIONS COMPRISING ANTIBODIES, BIOMARKERS, USES & METHODS” (KYMAB LIMITED, priority 2016, published 2024).

Key:
[1] = KY1005 pharmacokinetic (PK) analysis (OX40L capture ECL, MSD); assay type: in vivo, Rhesus macaque; settings: mono-prophylaxis, 10 mg/kg once weekly (FIG. 16A)
Protocol: For PK analysis, serum samples were collected 30 minutes before and 30 minutes after each infusion of KY1005 and then once weekly after the last dose was given. The KY1005 concentration was measured using an antigen (OX40L) capture electrochemiluminescence (ECL) assay on the MSD platform. In this assay, an MSD streptavidin 96-well plate is first coated with biotinylated-OX40L, followed by the addition of test samples, followed by the detection of bound KY1005 by a ruthenylated anti-human IgG (pre-adsorbed against monkey serum for added specificity).

[2] = tested on: human T-cells with allogeneic T-cell-depleted cells; assay: Human mixed lymphocyte reaction (CellTrace Violet); assay type: cell-based; settings: KY1005 150 μg/L, 7 days (FIG. 12H)
Protocol: Human Mixed Lymphocyte Reaction: Human MLRs were performed on unrelated healthy controls. PBMC samples were freshly isolated by Ficoll fractionation, followed by magnetic pan T-cell isolation using the Miltenyi Biotec human pan-T-cell isolation kit. Isolated T-cells were labeled with 2.5 μM CellTrace Violet (Invitrogen) and were co-cultured with irradiated (3500 cGy) on-column T-cell-depleted cell fractions from unrelated allogeneic individuals. MLR cultures were maintained for 7 days at 37° C. in XVivo15 (Lonza) supplemented with 10% FCS, 2 mM glutamine, penicillin-streptomycin and gentamycin and beta-Mercaptoethanol. KY1005 was added to the cultures at day 0 at a dose of 150 μg/L. On Day 7, cells were collected from the cultures, and were stained with antibodies against CD3, CD4, CD8, and then Live/Dead Aqua (Molecular Probes/Invitrogen) was added to exclude dead cells and debris. CellTrace Violet dilution was then measured in CD3^+, Live/Dead Aqua-cells by flow cytometry.

recombinant hOX40L = target: T1, recombinant hOX40L (Homo sapiens, UniProt P23510); assay: Surface plasmon resonance, apparent affinity to human OX40L; assay type: binding; settings: SPR, 25° C.; CNROR = Cannot resolve off-rate
T1 construct: cDNA encoding the extracellular domain of human OX40L was cloned into a pREP4 expression plasmid; isoleucine zipper (N); made in house; host or cells: FreeStyle CHO-S (transient)
Protocol: (§1) SPR analysis was carried out using the ProteOn™ XPR36 Array System (BioRad). Anti-mouse IgG (GE Healthcare BR-1008-38) was immobilised on a GLM biosensor surface using amine coupling, the surface was then blocked using 1 M ethanolamine. Test antibodies were captured on this surface and recombinant hOX40L (human and rhesus) were used at a single concentration of 256 nM, binding sensorgrams were double referenced using a buffer injection (i.e. 0 nM) to remove baseline drift and injection artefacts. Apparent affinities for the OX40L-antibody interaction were determined using the 1:1 model inherent to the ProteOn XPR36 analysis software. The assay was run using HBS-EP (Teknova) as running buffer and carried out at 25° C.

Rhesus monkey OX40L = assay: Surface plasmon resonance, apparent affinity to rhesus OX40L; assay type: binding, Rhesus (Macaca mulatta); settings: SPR, 25° C.; CNROR = Cannot resolve off-rate
Protocol: as §1

T1 sequence (P23510 with tags, fused parts or gaps): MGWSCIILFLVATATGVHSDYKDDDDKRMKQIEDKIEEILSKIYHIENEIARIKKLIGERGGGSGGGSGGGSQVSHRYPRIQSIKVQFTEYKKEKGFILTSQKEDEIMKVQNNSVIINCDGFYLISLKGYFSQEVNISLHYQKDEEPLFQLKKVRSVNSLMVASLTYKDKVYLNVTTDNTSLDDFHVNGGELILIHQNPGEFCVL
Chain of Rhesus monkey OX40L (as listed by the source): as the sequence (P23510 with tags, fused parts or gaps) above, with R77Q, K95E counted along it

Row | Molecule | KY1005 trough [1] [mg/L] | allo-proliferation of human cells in vitro [2] | Apparent Affinity hOX40L (nM) (recombinant hOX40L) | Apparent Affinity RhsOX40L (nM) (Rhesus monkey OX40L)
1 | KY1005: antibody used for GVHD immunoprophylaxis in NHP, measured by antigen (OX40L) capture assay; not tied to 02D10 in this part | 107.9 ± 11.7 | inhibit allo-proliferation of human cells in vitro | – | –
2 | 2D10 IgG4PE: fully human anti-human OX40L monoclonal antibody, human IgG4-PE; VH Seq ID No:34, VL Seq ID No:48; 2D10-1 to -4 are stable pools (antibody, V domains shown, human IgG4-PE constant regions; 02D10 - VH Amino Acid Sequence; 02D10 - VL Amino Acid Sequence) VH: EVQLVESGGGLVQPGGSLRLSCAASGFTFSNYAMNWVRQAPGKGLEWVSTISGSGGATRYADSVKGRFTISRDNSRNTVYLQMNSLRVEDTAVFYCTKDRLIMATVRGPYYYGMDVWGQGTTVTVSS VL: DIQMTQSPSSLSASVGDRVTITCRASQSISSYLNWYQQKPGKAPNLLIYAASSLQSGVPSRFSGSGSETDFTLTISSLQPEDFATYYCQQSHSVSFTFGPGTKVDIK | – | – | CNROR | CNROR
